Target: T1, mCAT-1 receptor expressed on HEK 293 cells (stable cell line) (mouse, UniProt Q09143 1-622)
T1 construct: whole, on cells
Assay: fluorescence microscopy, counting of green fluorescent Mo-NP bound per cell after 2.5 h at 37 C; 120 cells per cell line

T1 sequence (Q09143 whole entry): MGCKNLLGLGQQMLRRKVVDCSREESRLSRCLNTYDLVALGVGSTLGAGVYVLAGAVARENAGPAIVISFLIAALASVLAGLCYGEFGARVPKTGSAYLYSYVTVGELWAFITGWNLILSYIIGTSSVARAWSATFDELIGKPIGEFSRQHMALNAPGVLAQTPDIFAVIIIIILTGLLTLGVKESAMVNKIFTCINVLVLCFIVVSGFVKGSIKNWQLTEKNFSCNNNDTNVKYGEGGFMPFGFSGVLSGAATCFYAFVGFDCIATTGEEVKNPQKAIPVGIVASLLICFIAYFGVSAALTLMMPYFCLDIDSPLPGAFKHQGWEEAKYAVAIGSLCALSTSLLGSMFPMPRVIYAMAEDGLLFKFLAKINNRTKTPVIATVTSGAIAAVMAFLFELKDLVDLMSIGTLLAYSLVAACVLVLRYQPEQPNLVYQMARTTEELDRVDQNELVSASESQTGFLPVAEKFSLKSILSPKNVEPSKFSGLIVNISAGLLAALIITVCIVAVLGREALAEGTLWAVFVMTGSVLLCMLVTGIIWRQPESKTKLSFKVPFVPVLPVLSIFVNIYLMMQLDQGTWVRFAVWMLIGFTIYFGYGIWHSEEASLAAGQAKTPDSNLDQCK

B1: Moloney murine leukemia virus (Mo-MLV) envelope protein, in virus membranes coated onto 100 nm carboxylate-modified fluorescent nanoparticles (Mo-NP) (other)
chain: ASPGSSPHQVYNITWEVTNGDRETVWATSGNHPLWTWWPDLTPDLCMLAHHGPSYWGLEYQSPFSSPPGPPCCSGGSSPGCSRDCEEPLTSLTPRCNTAWNRLKLDQTTHKSNEGFYVCPGPHRPRESKSCGGPDSFYCAYWGCETTGRAYWKPSSSWDFITVNNNLTSDQAVQVCKDNKWCNPLVIRFTDAGRRVTSWTTGHYWGLRLYVSGQDPGLTFGIRLRYQNLGPRVPIGPNPVLADQQPLSKPKPVKSPSVTKPPSGTPLSPTQLPPAGTENRLLNLVDGAYQALNLTSPDKTQECWLCLVAGPPYYEGVAVLGTYSNHTSAPANCSVASQHKLTLSEVTGQGLCIGAVPKTHQALCNTTQTSSRGSYYLVAPTGTMWACSTGLTPCISTTILNLTTDYCVLVELWPRVTYHSPSYVYGLFERSNRHKREPVSLTLALLLGGLTMGGIAAGIGTGTTALMATQQFQQLQAAVQDDLREVEKSISNLEKSLTSLSEVVLQNRRGLDLLFLKEGGLCAALKEECCFYADHTGLVRDSMAKLRERLNQRQKLFESTQGWFEGLFNRSPWFTTLISTIMGPLIVLLMILLFGPCILNRLVQFVKDRISVVQAL
notes: Native env in virus membranes released by osmotic shock and sonication, then extruded over nanoparticles; In the β-lactamase experiments the particle core also carried covalently coupled B. cereus penicillinase; also called Mo-nanoparticles; Mo env-coated nanoparticles
fold more Mo-NP bound than by cells lacking the receptor: 26 fold
